We go through three molecules from patent US20200399344A1 (SHATTUCK LABS, published 2020).

Experiment [1] addresses T1, recombinant human CD28-Fc (rhCD28-Fc) protein (human, UniProt P10747 19-152).
T1 construct: not shown: Fc
The experiment can be described thus: dual ELISA; coat rhCD28-Fc, hCD80-fc-NKG2a titrated, detection HLA-E-His, Anti 6x-His-HRP; the signal needs both bindings. The protocol:
To understand whether the hCD80-Fc-NKG2A chimeric protein can binds simultaneously to both hCD28 and HLA-E, the following ELISA experiment was carried out. Briefly, and recombinant hCD28 (rhCD28-Fc) protein was coated on plates. Increasing amounts of the hCD80-Fc-NKG2A chimeric protein was added to the plates for capture by the recombinant human CD28-Fc (rhCD28-Fc) protein. Further, recombinant HLA-E (HLA-E-His) protein was added to the plate for capture by hCD80-Fc-NKG2A chimeric protein. The binding of the HLA-E-His protein was detected using an anti-His 6× HRP antibody.
A general note: An ELISA detects its analyte on a solid surface through an enzyme-linked reagent.

In experiment [2] the target is T2, recombinant human CD28-His (rhCD28-His) (human, UniProt P10747 19-152).
T2 construct: also called Human CD28-His protein; recombinant CD28 protein; not shown: His tag
T2 sequence (P10747 19-152 limits assumed): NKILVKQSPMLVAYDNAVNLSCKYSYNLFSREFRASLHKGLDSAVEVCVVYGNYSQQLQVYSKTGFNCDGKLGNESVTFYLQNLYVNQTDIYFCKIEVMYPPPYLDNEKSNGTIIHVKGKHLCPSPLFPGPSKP
The experiment can be described thus: ELISA: coat rhCD28-His (Acro), detection Anti-hFc-HRP. As to the method:
To understand whether the CD80 and CD86 parts of the hCD80-Fc-NKG2A and hCD86-Fc-NKG2A chimeric protein can bind CD28, ELISA-based assays were performed. Briefly, recombinant CD28 protein was coated on plates and increasing amounts of the hCD80-Fc-NKG2A, hCD86-Fc-NKG2A, and mCD48-Fc-NKG2A chimeric proteins, and recombinant human CD86-Fc (rhCD86-Fc) protein was added to the plates for capture by the plate-bound recombinant CD28 protein. The mCD48-Fc-NKG2A chimeric protein, and recombinant human CDrhCD86-Fc protein was used as negative and positive controls, respectively. The chimeric proteins bound to the recombinant CD28 protein was detected using an anti-human Fc HRP.

The target of experiment [3] is T3, recombinant HLA-E-His protein (human, UniProt P13747 22-305, limits assumed).
T3 construct: also called recombinant HLA-E (HLA-E-His); not shown: His tag
T3 sequence (P13747 22-305 limits assumed): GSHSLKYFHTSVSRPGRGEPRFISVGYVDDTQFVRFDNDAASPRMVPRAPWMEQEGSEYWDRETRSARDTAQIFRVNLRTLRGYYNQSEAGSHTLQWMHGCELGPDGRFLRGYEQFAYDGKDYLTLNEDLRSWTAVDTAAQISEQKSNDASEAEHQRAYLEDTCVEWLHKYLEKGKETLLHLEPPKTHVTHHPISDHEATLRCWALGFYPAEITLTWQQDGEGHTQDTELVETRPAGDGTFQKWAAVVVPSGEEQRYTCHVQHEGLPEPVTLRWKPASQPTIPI
The experiment can be described thus: ELISA: the chimeric protein is the titrated coat (1:3), detection HLA-E-His (Novus NBP2-47435PEP), HRP Anti-6x-His-HRP. As to the method:
In a complementary experiment, increasing amounts of the hCD48-Fc-NKG2A, hCD58-Fc-NKG2A, and hCD80-Fc-NKG2A chimeric proteins or a negative control protein was coated on plates. Recombinant HLA-E-His protein was added to the plates for capture by the plate-bound chimeric proteins or the negative control protein. The captured HLA-E-His protein was detected using an anti-6×-His-HRP antibody.

Experiment [4] deals with T4, anti-mFc IgG antibody (plate-bound).
T4 construct: also called anti-Fc antibody
The experiment can be described thus: ELISA: coat Anti-mFc (IgG) Jax #115-006-008, detection Anti-mFc (H+L) HRP. As to the method: To understand whether the Fc linkers from the native chimeric proteins can be accessed by anti-mouse Fc antibodies, ELISA-based assays were performed. For these assays, an anti-mFc IgG antibody was coated on plates and increasing amounts of the mPD-1-Fc-NKG2A and mSLAMF6-Fc-NKG2a chimeric proteins were added to the plates for capture by the plate-bound anti-mFc IgG antibody. The binding of the mPD-1-Fc-NKG2A and mSLAMF6-Fc-NKG2a chimeric proteins bound to the anti-mFc IgG antibody were detected using an anti-mFc HRP. An IgG antibody mouse Fc was used to generate a standard curve. mFc IgG was used as a positive control.

Experiment [5] addresses T5, recombinant mouse PD-L1-Fc (rmPD-L1-Fc) (mouse, UniProt Q9EP73 19-238).
T5 construct: also called rPD-L1-Fc; not shown: Fc
Put plainly: dual ELISA; coat mPDL1-Fc, mPD1-Fc-NKG2a titrated, detection HLA-E-His, Anti-His-6x-HRP; the signal needs both bindings. The protocol: Increasing amounts of the mPD-1-Fc-NKG2A chimeric protein was added and detected using HLA-E-His. A chimeric protein comprising ECD of a type II transmembrane protein other than NKG2A was used as a negative control.
To understand whether the PD-1-Fc-NKG2A chimeric protein can binds simultaneously to both PD-L1 and HLA-E, the following ELISA experiment was carried out. Briefly, and recombinant PD-L1 (rPD-L1-Fc) protein was coated on plates. Increasing amounts of the PD-1-Fc-NKG2A chimeric protein was added to the plates for capture by the rPD-L1-Fc protein. Further, recombinant HLA-E (HLA-E-His) protein was added to the plate for capture by PD-1-Fc-NKG2A chimeric protein. The binding of the HLA-E-His protein was detected using an anti-His 6× HRP antibody.

Experiment [6] addresses T6, recombinant PD-L1 protein (mPD-L1-His) (mouse, UniProt Q9EP73 19-238).
T6 construct: not shown: His tag
Put plainly: ELISA; mPD1-Fc-NKG2a coated in rising amounts, detection mPD-L1-His, Anti-His-6x-HRP. As to the method: Programmed death-ligand 1 (PD-L1) is a PD-1 ligand. To understand whether the PD-1 parts of the PD-1-Fc-NKG2A chimeric protein can bind PD-L1, ELISA-based assays were performed. […] The chimeric protein bound to the recombinant PD-L1 protein was detected using an anti-His-6× HRP.

For experiment [7], the target named is T3, recombinant HLA-E-His protein. The experiment can be described thus: Dual binding ELISA (capturing with HLA-E): coat hHLA-E-His (Novus), detect Anti-hPD1 (Sino), HRP Anti-mFc-HRP. The text has this: As shown in FIG. 9C and FIG. 9D, binding of the hNKG2A domain of the hPD-1-Fc-hNKG2A chimeric protein was characterized by capturing to, respectively, a plate-bound HLA-E. In FIG. 9C, the hPD-1-Fc-hNKG2A chimeric protein was detected using an anti-human PD-1 antibody in conjunction with an HRP conjugated anti-mouse Fc antibody. In FIG. 9D, the hPD-1-Fc-hNKG2A chimeric protein was directly detected via an HRP conjugated anti-mouse Fc antibody.

The target of experiment [8] is T7, recombinant hPD-L1 (hPD-L1-Fc) protein (human, UniProt Q9NZQ7 19-239).
T7 construct: not shown: Fc
T7 sequence (Q9NZQ7 19-239 limits assumed): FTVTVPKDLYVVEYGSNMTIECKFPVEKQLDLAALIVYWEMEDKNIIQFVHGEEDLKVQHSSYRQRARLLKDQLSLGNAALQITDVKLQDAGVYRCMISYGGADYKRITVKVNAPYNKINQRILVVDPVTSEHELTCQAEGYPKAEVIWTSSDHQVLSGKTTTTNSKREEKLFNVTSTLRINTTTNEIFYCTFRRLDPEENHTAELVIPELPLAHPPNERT
The experiment can be described thus: dual ELISA; coat hPDL1-Fc, hPD1-fc-NKG2a titrated, detection HLA-E-His, Anti-His-6x-HRP; the signal needs both bindings. The protocol: To understand whether the hPD-1-Fc-NKG2A chimeric protein can binds simultaneously to both hPD-L1 and HLA-E, the following ELISA experiment was carried out. Briefly, and recombinant hPD-L1 (hPD-L1-Fc) protein was coated on plates. Increasing amounts of the hPD-1-Fc-NKG2A chimeric protein was added to the plates for capture by the hPD-L1-Fc protein. Further, recombinant HLA-E (HLA-E-His) protein was added to the plate for capture by hPD-1-Fc-NKG2A chimeric protein. The binding of the HLA-E-His protein was detected using an anti-His 6× HRP antibody.

The target in experiment [9] is T3, recombinant HLA-E-His protein. The experiment can be described thus: ELISA (single-sided): coat hHLA-E-His (Novus), detect Anti-hFc (JAX); curve rises to about 0.4 at the highest concentration, no plateau. The text has this: As shown in FIG. 9C and FIG. 9D, binding of the hNKG2A domain of the hPD-1-Fc-hNKG2A chimeric protein was characterized by capturing to, respectively, a plate-bound HLA-E. In FIG. 9C, the hPD-1-Fc-hNKG2A chimeric protein was detected using an anti-human PD-1 antibody in conjunction with an HRP conjugated anti-mouse Fc antibody. In FIG. […]

Experiment [10] has as its target T8, hPD-L1 expressed on CHO-K1/hPD-L1 cells (human, UniProt Q9NZQ7 19-290).
T8 construct: whole, on cells
The experiment can be described thus: flow cytometry cell binding assay, CHO-K1-Luc cells, detection Anti-hARC-PE.

The target of experiment [11] is T9, anti-human IgG antibody (plate-bound).
T9 construct: also called anti-human Fc antibody
The experiment can be described thus: Fc ELISA: coat Anti-hFc (Jax), detect Anti-hFc-HRP (Jax).

Experiment [12] addresses T10, PD-L1, plate-bound (Example 8) (Homo sapiens (Human), UniProt Q9NZQ7 19-238).
T10 construct: not shown: The Fc carrier of the vendor's hPD-L1-Fc (R&D) and any linker
The experiment can be described thus: Dual ELISA (capturing with PDL1): coat hPDL1-Fc (R&D), detect hHLA-E (Novus), HRP Anti-6X His.

T1 sequence (P10747 19-152 limits assumed): as the sequence (P10747 19-152 limits assumed) above
T8 sequence (Q9NZQ7 19-290): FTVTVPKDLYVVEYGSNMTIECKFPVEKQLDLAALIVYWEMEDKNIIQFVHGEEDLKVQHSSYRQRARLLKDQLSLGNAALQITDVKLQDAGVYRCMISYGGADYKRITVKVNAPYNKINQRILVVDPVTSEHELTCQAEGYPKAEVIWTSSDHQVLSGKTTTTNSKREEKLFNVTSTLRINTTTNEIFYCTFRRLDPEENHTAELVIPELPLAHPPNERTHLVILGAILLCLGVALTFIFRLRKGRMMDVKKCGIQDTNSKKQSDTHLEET
T5 sequence (Q9EP73 19-238 limits assumed): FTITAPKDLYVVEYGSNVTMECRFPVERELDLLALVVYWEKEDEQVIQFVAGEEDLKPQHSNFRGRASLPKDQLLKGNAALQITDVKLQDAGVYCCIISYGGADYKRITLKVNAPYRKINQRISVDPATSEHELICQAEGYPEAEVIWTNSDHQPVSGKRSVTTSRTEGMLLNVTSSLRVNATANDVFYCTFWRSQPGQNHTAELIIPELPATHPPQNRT
T6 sequence (Q9EP73 19-238 limits assumed): as above
T10 sequence (Q9NZQ7 19-238 limits assumed): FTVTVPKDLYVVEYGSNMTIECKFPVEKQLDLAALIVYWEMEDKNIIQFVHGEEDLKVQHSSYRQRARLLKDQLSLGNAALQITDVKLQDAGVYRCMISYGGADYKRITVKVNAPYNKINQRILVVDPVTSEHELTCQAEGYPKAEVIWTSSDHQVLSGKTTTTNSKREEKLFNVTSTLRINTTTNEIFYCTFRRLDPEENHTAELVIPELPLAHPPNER

B1: human CD80-Fc-NKG2A chimeric protein (Fc fusion)
chain: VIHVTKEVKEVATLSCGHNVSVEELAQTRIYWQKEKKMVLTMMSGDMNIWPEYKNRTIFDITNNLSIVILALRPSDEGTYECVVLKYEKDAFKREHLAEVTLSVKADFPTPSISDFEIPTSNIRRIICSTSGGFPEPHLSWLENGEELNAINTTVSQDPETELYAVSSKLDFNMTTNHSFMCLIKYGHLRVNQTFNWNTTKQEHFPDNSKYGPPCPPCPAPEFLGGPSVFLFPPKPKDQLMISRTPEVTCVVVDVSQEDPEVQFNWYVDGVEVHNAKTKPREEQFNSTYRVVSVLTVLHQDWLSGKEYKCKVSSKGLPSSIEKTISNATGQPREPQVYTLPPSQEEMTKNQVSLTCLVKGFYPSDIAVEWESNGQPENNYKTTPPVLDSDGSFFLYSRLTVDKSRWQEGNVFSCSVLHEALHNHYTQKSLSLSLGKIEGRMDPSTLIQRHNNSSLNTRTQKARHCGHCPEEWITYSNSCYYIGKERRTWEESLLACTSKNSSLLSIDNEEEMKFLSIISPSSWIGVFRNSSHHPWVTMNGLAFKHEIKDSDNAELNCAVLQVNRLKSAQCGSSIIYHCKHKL
notes: also called hCD80-Fc-NKG2A
Take B1: the binding result in experiment [1] and in [2] was “binds” in each case. In addition, in experiment [3], the EC50 (read off the curve) (as a rule, the midpoint of the concentration-response curve) was ~0.9 µg/mL.

B2: mouse PD-1-Fc-NKG2A chimeric protein (Fc fusion)
chain: SGWLLEVPNGPWRSLTFYPAWLTVSEGANATFTCSLSNWSEDLMLNWNRLSPSNQTEKQAAFCNGLSQPVQDARFQIIQLPNRHDFHMNILDTRRNDSGIYLCGAISLHPKAKIEESPGAELVVTERILETSTRYPSPSPKPEGRFQGMVPRDCGCKPCICTVPEVSSVFIFPPKPKDVLTITLTPKVTCVVVDISKDDPEVQFSWFVDDVEVHTAQTQPREEQFNSTFRSVSELPIMHQDWLNGKEFKCRVNSAAFPAPIEKTISKTKGRPKAPQVYTIPPPKEQMAKDKVSLTCMITDFFPEDITVEWQWNGQPAENYKNTQPIMDTDGSYFVYSKLNVQKSNWEAGNTFTCSVLHEGLHNHHTEKSLSHSPGIIEGRMDTPYTEAKAQINSSMTRTHRDINYTLSSAQPCPHCPKEWISYSHNCYFIGMERKSWNDSLVSCISKNCSLLYIDSEEEQDFLQSLSLISWTGILRKGRGQPWVWKEDSIFKPKIAEILHDECNCAMMSASGLTADNCTTLHPYLCKCKFPI
notes: also called mPD-1-Fc-NKG2A; mPD1-Fc-NKG2A
For B2, the “EC50 (read off the curve)” value is ~0.08 µg/mL in experiment [4], ~40 µg/mL in experiment [5] and ~20 µg/mL in experiment [6].

B3: human PD-1-Fc-hNKG2A chimeric protein (Fc fusion)
chain: not shown
notes: the Fc of the tested construct is therefore uncertain; also called hPD-1-Fc-hNKG2A; hPD-1-Fc-NKG2A
Turning to B3, the half-maximal effective concentration (EC50) (as a rule, the concentration giving half of the maximal effect) in [7] was ~0.175 µM; in [9] it was ~24200 µM; in experiment [11], 0.00964 µM; in experiment [12] it was 0.0256 µM. The “EC50 (read off the curve)” value in experiment [8] was ~20 µg/mL; in experiment [10] it was ~1 µg/mL.
